Source: patent publication US20140120109A1 (Regeneron, published 2014)
Residue numbers refer to the chain shown, from its start. Names and notes keep the numbering of the source.

What was measured:
[1] = target: T1, cynomolgus monkey TL1A, soluble, CHO-expressed, residues 72-251 of SEQ ID NO:248 with N-terminal His6-tag (cynomolgus monkey (Macaca fascicularis), UniProt O95150 72-251 (human entry)); experiment: SPR 37C, mAb captured; SPR, 37 C
T1 construct: also called MfTL1A; MfTL1A (CHO)
T1 chain: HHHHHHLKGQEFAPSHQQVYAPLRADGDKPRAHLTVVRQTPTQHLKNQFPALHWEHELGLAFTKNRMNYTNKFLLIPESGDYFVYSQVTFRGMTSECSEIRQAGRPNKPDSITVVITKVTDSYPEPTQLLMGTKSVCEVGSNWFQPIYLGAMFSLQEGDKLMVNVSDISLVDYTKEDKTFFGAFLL
Protocol: (§1) Measurements were conducted on a T100 BIACORE™ instrument. […] Kinetic association (kₐ) and dissociation (kd) rate constants were determined by fitting the data to a 1:1 binding model using BIAevaluation 4.1 curve fitting software (BIAcore Life Sciences). Molar concentrations of TL1A/Fhm used in the data fitting assumed a monomeric state for TL1A in solution. Binding dissociation equilibrium constants (KD) and dissociative half-lives (t_{1/2}) were calculated from the kinetic rate constants as: KD (M)=kd/kₐ; and t_{1/2} (min)=[In2/(60*kd)].

[2] = target: T1, cynomolgus monkey TL1A, soluble, …; experiment: ELISA, blocks MfTL1A (500 pM) binding hDR3-Fc; blocking of MfTL1A binding to hDR3
Protocol: The ability of antibodies to block human TL1A binding to its cognate receptors, the DR3 and DcR3 receptors, was measured using a competition sandwich ELISA. In addition, blocking of a human TL1A variant FHM (human TL1A Q167R) and the cynomolgus monkey (Macaca fascicularis) TL1A (MfTL1A) protein binding to the human DR3 or DcR3 receptors was measured in the same manner. Constant amounts of biotinylated human TL1A or FHM (both expressed with a 6-His tag in CHO cells) or biotinylated MfTL1A (expressed in CHO cells) were separately titrated with varying amounts of antibodies. The antibody-protein complexes were incubated in solution (1 hr, 25° C.) and then transferred to microtiter plates coated with human DR3 (hDR3) or human DcR3 (hDcR3) expressed as human IgG1 Fc fusion proteins. After one hour at 25° C. the wells were washed, and bound human or monkey TL1A was detected with streptavidin conjugated with horseradish peroxidase (HRP). Wells were developed with a TMB solution to produce a colorimetric reaction and quenched with aqueous sulfuric acid before reading absorbance at 450 nm on a Perkin-Elmer Victor X5 plate reader. A sigmoidal dose-response curve was fit to the data using the Prism™ data analysis package. […]

[3] = target: T2, human TL1A, soluble, CHO-expressed, residues 72-251 of SEQ ID NO:244 with N-terminal His6-tag (human, UniProt O95150 72-251); experiment: SPR 25C, mAb captured; kd set at 1e-6 1/s; 25 C; kd set at 1x10^-6 1/s
T2 construct: also called hTL1A; hTL1A (CHO)
T2 sequence: T1 chain with L45F, V84I
Protocol: as §1

[4] = target: T2, human TL1A, soluble, CHO-expressed, …; experiment: SPR 25C, mAb captured; kd set at 1e-6 1/s
Protocol: as §1

[5] = target: T3, rat TL1A, soluble, CHO-expressed, residues 76-252 of SEQ ID NO:258 with N-terminal His6-tag (rat, UniProt Q8K3Y7 76-252); experiment: SPR 37C, mAb captured; kd set at 1e-6 1/s
T3 construct: also called rTL1A; rTL1A (CHO)
T3 sequence: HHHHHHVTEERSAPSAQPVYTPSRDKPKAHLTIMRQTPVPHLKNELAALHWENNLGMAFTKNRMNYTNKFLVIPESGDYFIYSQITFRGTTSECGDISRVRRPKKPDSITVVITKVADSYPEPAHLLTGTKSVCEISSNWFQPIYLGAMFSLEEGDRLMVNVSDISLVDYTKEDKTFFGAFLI
Protocol: as §1

[6] = target: T4, mouse TL1A, soluble, CHO-expressed, residues 76-252 of SEQ ID NO:250 with N-terminal His6-tag (mouse, UniProt Q5UBV8 76-252); experiment: SPR 25C, mAb captured; 25 C, CHO-expressed mTL1A, SPR
T4 construct: also called mTL1A; mTL1A (CHO)
T4 sequence: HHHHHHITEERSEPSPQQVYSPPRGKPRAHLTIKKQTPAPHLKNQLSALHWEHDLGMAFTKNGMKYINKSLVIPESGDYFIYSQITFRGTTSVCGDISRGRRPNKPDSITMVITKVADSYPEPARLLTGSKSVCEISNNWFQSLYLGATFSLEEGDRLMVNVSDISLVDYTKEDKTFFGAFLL
Protocol: as §1

[7] = target: T5, Fhm, hTL1A(Q167R), soluble, CHO-expressed, residues 72-251 of SEQ ID NO:246 (human, UniProt O95150 72-251); experiment: ELISA, blocks FHM (150 pM) binding hDR3-Fc; blocking of FHM binding to hDR3
T5 construct: also called Fhm (CHO); FHM (CHO)
T5 chain: T1 chain with L45F, V84I, Q102R
Protocol: The ability of antibodies to block human TL1A binding to its cognate receptors, the DR3 and DcR3 receptors, was measured using a competition sandwich ELISA. In addition, blocking of a human TL1A variant FHM (human TL1A Q167R) and the cynomolgus monkey (Macaca fascicularis) TL1A (MfTL1A) protein binding to the human DR3 or DcR3 receptors was measured in the same manner. Constant amounts of biotinylated human TL1A or FHM (both expressed with a 6-His tag in CHO cells) or biotinylated MfTL1A (expressed in CHO cells) were separately titrated with varying amounts of antibodies. The antibody-protein complexes were incubated in solution (1 hr, 25° C.) and then transferred to microtiter plates coated with human DR3 (hDR3) or human DcR3 (hDcR3) expressed as human IgG1 Fc fusion proteins. After one hour at 25° C. the wells were washed, and bound human or monkey TL1A was detected with streptavidin conjugated with horseradish peroxidase (HRP). Wells were developed with a TMB solution to produce a colorimetric reaction and quenched with aqueous sulfuric acid before reading absorbance at 450 nm on a Perkin-Elmer Victor X5 plate reader. A sigmoidal dose-response curve was fit to the data using the Prism™ data analysis package. […] Both fully human anti-hTL1A mAbs and comparator antibodies, i.e., control mAb1 (an anti-hTL1A antibody with heavy and light chain variable domains having the amino acid sequences corresponding to SEQ ID NOS:21 and 27, respectively, of US 2009/0280116) and control mAb3 (an anti-hTL1A antibody with heavy and light chain variable domains having the amino acid sequences corresponding to SEQ ID NOS:57 and 48, respectively, of US 2009/0280116), were included in the study. NB: No binding under the conditions tested; NT: Not tested. Concentrations of biotinylated soluble ligands: (1) 150 pM; (2) 500 pM; (3) 10 pM; and (4) 50 pM.

B1: H4H1750P (antibody, human IgG4 S228P, V domains shown)
VH: QVQLVESGGGVVQPGRSLRLSCVASGFTFSNYGMHWVRQAPGKGLEWVAVISYDGNNDLYSDSVKGRFTISRDNAKNALSLQMTSLRAEDTAVYYCARDSTMTPYYYHGIDVWGQGTTVTVSA
VL: DIQMTQSPSSLSASVGDRVTITCRASQDIRNDLGWYQQKPGKAPKRLIYAASSLQSGVPSRFSGSGSGTDFTLTISSLQPEDFATYYCLQHNSYPPTFGQGTKVEIK
Work on B1 yielded a Kd [1] of 17.1 nM, a t1/2 [1] of 11 min and an IC50 [2] of 5.21 nM. The Kd [3] was at most 0.0158 nM and the t1/2 [4] was at least 192 h.

B2: H4H1818N (antibody, human IgG4 S228P, V domains shown)
VH: RLQLVESGGGLVKPGGSLKLSCAASGFTISDYYMSWIRQAPGKGLEWVSYIGGSGSTIYYADSVKGRFTISRDNAKNSLYLQMNSLRAEDTAVYYCAREDADSYYYYGMDVWGQGTTVTVSS
VL: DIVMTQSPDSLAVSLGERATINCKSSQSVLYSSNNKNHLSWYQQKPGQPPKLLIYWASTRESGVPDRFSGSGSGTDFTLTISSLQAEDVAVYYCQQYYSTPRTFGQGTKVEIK
notes: human IgG4(S108P) form of H2M1818N
For B2, the Kd [5] was at most 0.00061 nM, the t1/2 [5] was at least 192 h and the Kd [6] was 7.1 nM. The t1/2 [6] was 12 min.

B3: H4H1804N (antibody, human IgG4 S228P, V domains shown)
VH: QVQLHQWGAGLLKPSETLSLTCAVSGVSFSDYHWAWIRQSPGKGLEWIGDINHRGRTNYNPSLKSRVTISLDTSGNPFSLKLTSVTAADTAVYYCARDFPNWVFDSWGQGILVTVSS
VL: EIVLSQSPGTLSLSPGERATLSCRASQSVSSSFLAWYQQYPGQAPRLLIYGASRRATGIPDRFRGSGSGTDFTLTISRLEPEDFAVYYCQQYGSSPLTFGGGTKVENK
notes: human IgG4(S108P) form of H2M1804N
B3 was tested, and the IC50 [7] was 0.069 nM.
